# The supplement of paper PMC7877785
# ± gives the uncertainty stated by the source.
# Assay: self-splicing fitness, log relative to wild type (ln ratio); higher = more splicing; Tetrahymena group I intron in knt gene, E. coli kanamycin selection, DiMSum; sequences stand for … in CUCUCU…GGAGGGAAAAGUUAUCAGGCAUGCACCUGGUAGCUAGUCUUUAAACCAAUAGAUUGCAUCGGUUUAAAAGGCAAGACCGUCAAAUUGCGGGAAAGGGGUCAACAGCCGUUCAGUACCAAGUCUCAGGGGAAACUUUGAGAUGGCCUUGCAAAGGGUAUGGUAAUAAGCUGACGGACAUGGUCCUAACCACGCAGCCAAGUCCUAAGUCAACAGAUCUUCUGUUGAUAUGGAUGCAGUUCACAGACUAAAUGUCGGUCGGGGAAGAUGUAUUCUUCUCAUAAGAUAUAGUCGGACCUCUCCUUAAUGGGAGCUAGCGGAUGAAGUGAUGCAACACUGGAGCCGCUGGGAACUAAUUUGUAUGCGAAAGUAUAUUGAUUAGUUUUGGAGUACUCGUGGUCG
# How it was run: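 Colonies from six replicate transformations of E. coli BL21(DE3) were pooled and amplicon-sequenced on an Illumina HiSeq 2500. The library placed an intron with all eight P1ex-region nucleotides randomised inside the knt kanamycin-resistance gene on pET-22b(+), and cells grew overnight at 37°C or 30°C on LB agar with or without 25 μg/mL kanamycin (plus 100 μg/mL carbenicillin, 50 μM IPTG, 0.2% rhamnose). Fitness is the DiMSum error-weighted combination of wild-type-normalised replicate fold changes, kanamycin versus none.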
Sequence,self-splicing fitness (ln) (30 °C),self-splicing fitness (ln) (37 °C)
CUGAAGCAAUAUUACGUUUC,-2.72 ± 0.41,
CUGCAGCAAUAUUACGACAC,-3.35 ± 0.23,-3.61 ± 0.33
CUGCAGCAAUAUUACGACUC,-3.27 ± 0.26,-1.98 ± 0.27
CUGCAGCAAUAUUACGACUU,-2.66 ± 0.14,-2.25 ± 0.17
CUGCAGCAAUAUUACGAUAG,-1.16 ± 0.11,-0.167 ± 0.12
CUGCAGCAAUAUUACGCCGA,,-2.61 ± 0.36
CUGCAGCAAUAUUACGCCGC,,-2.23 ± 0.45
CUGCAGCAAUAUUACGCGCA,-3.37 ± 0.15,-2.13 ± 0.15
CUGCAGCAAUAUUACGCGGA,-2.29 ± 0.21,-2.21 ± 0.31
CUGCAGCAAUAUUACGCUGG,-3.66 ± 0.23,-2.64 ± 0.25
CUGCAGCAAUAUUACGGACA,,-1.44 ± 0.28
CUGCAGCAAUAUUACGGACG,-0.355 ± 0.14,0.179 ± 0.15
CUGCAGCAAUAUUACGGAUG,-1.16 ± 0.061,-0.415 ± 0.081
CUGCAGCAAUAUUACGGCCU,-3.23 ± 0.17,-1.56 ± 0.15
CUGCAGCAAUAUUACGGUGU,-4.57 ± 0.36,-2.37 ± 0.24
CUGCAGCAAUAUUACGUAGG,-0.76 ± 0.057,-0.512 ± 0.07
CUGCAGCAAUAUUACGUGAA,-4.94 ± 0.45,-3.45 ± 0.23
CUGCAGCAAUAUUACGUGCG,-1.67 ± 0.093,-1.26 ± 0.11
CUGCAGCAAUAUUACGUUAA,-3.5 ± 0.24,-3.02 ± 0.27
CUGCAGCAAUAUUACGUUGC,-3.71 ± 0.26,-2.18 ± 0.29
CUGGAGCAAUAUUACGAACA,-2.85 ± 0.42,-1.64 ± 0.48

Sequence,self-splicing fitness (ln) (30 °C),self-splicing fitness (ln) (37 °C)
CUGGAGCAAUAUUACGACUC,,-2.39 ± 0.41
CUGGAGCAAUAUUACGAGAC,,-0.723 ± 0.29
CUGGAGCAAUAUUACGAGAU,-4.02 ± 0.39,-2.49 ± 0.44
CUGGAGCAAUAUUACGAGUA,-2.08 ± 0.26,-3.21 ± 0.35
CUGGAGCAAUAUUACGCAGC,-3.72 ± 0.49,-0.0349 ± 0.47
CUGGAGCAAUAUUACGCCGC,,-1.1 ± 0.38
CUGGAGCAAUAUUACGCGAU,-2.76 ± 0.16,-1.9 ± 0.15
CUGGAGCAAUAUUACGCUAG,,-2.79 ± 0.36
CUGGAGCAAUAUUACGGCCG,-0.999 ± 0.27,
CUGGAGCAAUAUUACGGGGU,-3.12 ± 0.31,-1.53 ± 0.27
CUGGAGCAAUAUUACGGGUU,-2.29 ± 0.18,-2.91 ± 0.28
CUGGAGCAAUAUUACGGUGA,-2.75 ± 0.24,-3.22 ± 0.35
CUGGAGCAAUAUUACGUAUG,-1.78 ± 0.12,-0.437 ± 0.14
CUGGAGCAAUAUUACGUCAA,-2.69 ± 0.44,-1.19 ± 0.47
CUGGAGCAAUAUUACGUCGG,-3.08 ± 0.26,
CUGGAGCAAUAUUACGUCUA,-1.72 ± 0.3,-0.483 ± 0.23
CUGGAGCAAUAUUACGUUAA,-3.18 ± 0.37,-2.05 ± 0.24
CUGGAGCAAUAUUACGUUAC,-2.8 ± 0.23,-1.42 ± 0.41
CUGGAGCAAUAUUACGUUCG,-4.29 ± 0.3,-1.77 ± 0.19
CUGGAGCAAUAUUACGUUUA,-3.17 ± 0.18,-3.28 ± 0.22
